# Reference: patent US6034061
# B1: recombinant human BMP-9, CHO-derived (mature region of human BMP-9 expressed from the murine/human BMP-9 fusion plasmid) (ligand)
# chain: TRECSRSCPRTAPQRQVRAVTRRTRMAHVAAGSTLARRKRSAGAGSHCQKTSLRVNFEDIGWDSWIIAPKEYEAYECKGGCFFPLADDVTPTKHAIVQTLVHLKFPTKVG
# modifications: iodinated (125I) where used as the tracer; unlabelled where used as the competitor or in the proliferation assay
# Tests used:
# [1] = biological target: BMP-9 receptors expressed on HepG2 cells (ATCC HB8065); assay: Scatchard analysis of 125I-BMP-9 binding to HepG2 cells
# [2] = biological target: BMP-9 receptors expressed on HepG2 cells (ATCC HB8065); assay: Scatchard analysis; 2 ng/ml 125I-BMP-9 displaced by unlabelled BMP-9 on HepG2 cells, 20 hours at 4 C
# [3] = biological target: BMP-9 receptors expressed on HepG2 cells (ATCC HB8065); assay: 125I-BMP-9 binding to HepG2 cells
# [4] = biological target: BMP-9 receptors expressed on HepG2 cells (ATCC HB8065); assay: 125I-BMP-9 binding to HepG2 cells; the Kd told again in ng/ml
# [5] = biological target: BMP-9 receptors expressed on HepG2 cells (ATCC HB8065)
binder,measurement,setting,value
B1,high affinity receptors per cell (receptors per cell),[1],10000
same,Kd,[2],0.3 nM
same,Kd,[3],0.27 nM
same,Kd,[4],8 ng/mL
same,3H-thymidine incorporation in HepG2 cells,[5],5 fold
same,ED50 of 3H-thymidine incorporation in HepG2 cells,[5],10 ng/mL
